Source: paper PMC1570500

Target: syntaxin 1 (rat (endogenous in PC12)) (UniProt P32851)
Assay: immunostaining of cells or tissue; PC12 membrane sheets incubated in buffer at 37 °C for increasing periods before fixation, immunostained for Munc18–1; no re-binding (large volume of buffer); trace fitted to a double-exponential decay

Chain of UniProt P32851 (P32851 whole entry): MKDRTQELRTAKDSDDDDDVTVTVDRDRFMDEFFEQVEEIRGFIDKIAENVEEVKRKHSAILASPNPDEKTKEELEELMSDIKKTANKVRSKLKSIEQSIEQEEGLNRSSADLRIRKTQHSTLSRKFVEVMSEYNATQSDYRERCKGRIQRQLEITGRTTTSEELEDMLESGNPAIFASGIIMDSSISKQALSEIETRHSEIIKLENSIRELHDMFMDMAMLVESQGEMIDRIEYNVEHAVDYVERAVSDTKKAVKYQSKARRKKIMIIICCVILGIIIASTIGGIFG

half-time of dissociation from the membrane, fast component of a double-exponential decay: 5 s
half-time of dissociation from the membrane, slow component of a double-exponential decay: 1000 s
Substance: Munc18–1 (from UniProt P61765 1-594) (natural protein)
